Earlier results in publication PMC10361579.
“And” between values parts separate entries of the source, which are not always exact repeats. Equal entries are not always repeated.

Experiments:
[1] = target: classical cadherin (strand-swap dimer) (UniProt P12830)
[2] = target: classical cadherin (X-dimer) (UniProt P12830)

| Kd [1] | Kd [2] [µM] | Substance |
| --- | --- | --- |
| 64 µM and 97 µM | – | classical cadherin (strand-swap dimer) (from UniProt P12830) |
| – | 916 | classical cadherin (X-dimer) (from UniProt P12830) |
